B1: N-TIMP2 (WT N-terminal domain of TIMP2 containing internal FLAG-tag, c-myc-tag and His-tag) (domain or fragment)
chain: CSCSPVHPQQAFCNADVVIRAKAVSEKEVDSGNDIYGNPIKRIQYEIKQIKMFKGPEDIEFIYTAPSSAVCGVSLDVGGKKEYLIAGKAEGDGKMHITLCDFIVPWDTLSTTQKKSLNHRYQMGCE
B2: N-TIMP2-PAT200 (protein)
chain: CSCSPVHPQQAFCNADVVIRAKAVSEKEVDSGNDIYGNPIKRIQYEIKQIKMFKGPEDIEFIYTAPSSAVCGVSLDVGGKKEYLIAGKAEGDGKMHITLCDFIVPWDTLSTTQKKSLNHRYQMGCEATPTPAPTAPTTPTPTPTTPAPTTPTTPATPAPTTPATPAPTPATPTPAAPAPTTPTPAAPAPTPATPTAPAPTTPTAPTAPTPATPATPAAPTPTPTTPTTPTAPAAPTPTAPTAPAPTAPTAPTAPATPAAPATPTPAPTAPATPTPAAPTTPTAPTPTPTPAPATPAAPAPTPATPAAPTTPAAPTAPAAPTTPTPT
B3: N-TIMP2-PAT100 (protein)
chain: CSCSPVHPQQAFCNADVVIRAKAVSEKEVDSGNDIYGNPIKRIQYEIKQIKMFKGPEDIEFIYTAPSSAVCGVSLDVGGKKEYLIAGKAEGDGKMHITLCDFIVPWDTLSTTQKKSLNHRYQMGCETAPAAPATPAPTAPTPTPAAPAPTTPATPAPTPAAPAPAPTAPTAPAAPTAPATPAAPTTPTPTTPTPATPTPTAPAPATPTTPTPTAPAAPTPAPTTPA

In this assay the target is high-stability mutant of the MMP-9 catalytic domain lacking the fibronectin-like domain (MMP9CAT*) (human) (UniProt P14780). Briefly: enzymatic activity inhibition assay.
The Ki is the equilibrium dissociation constant of an inhibitor or competing ligand from its target. High values mean weaker binding, low ones tighter binding. Turning to B1, the Ki stood at 0.32 nM.

As for B2, the Ki was 0.59 nM.

The molecule B3 displayed a Ki of 0.24 nM.

For the origin of these results see publication PMC11230438.
